Results: patent US20240301052A1 (LANOVA MEDICINES DEVELOPMENT, published 2024)
Read-outs that look alike come from different tables or passages of the source.

Experiments:
human SLC34A2 [1] = biological target: T1, human SLC34A2 (human, UniProt O95436 1-690); assay: FACS, HEK293/human SLC34A2 cells
T1 sequence (looked up): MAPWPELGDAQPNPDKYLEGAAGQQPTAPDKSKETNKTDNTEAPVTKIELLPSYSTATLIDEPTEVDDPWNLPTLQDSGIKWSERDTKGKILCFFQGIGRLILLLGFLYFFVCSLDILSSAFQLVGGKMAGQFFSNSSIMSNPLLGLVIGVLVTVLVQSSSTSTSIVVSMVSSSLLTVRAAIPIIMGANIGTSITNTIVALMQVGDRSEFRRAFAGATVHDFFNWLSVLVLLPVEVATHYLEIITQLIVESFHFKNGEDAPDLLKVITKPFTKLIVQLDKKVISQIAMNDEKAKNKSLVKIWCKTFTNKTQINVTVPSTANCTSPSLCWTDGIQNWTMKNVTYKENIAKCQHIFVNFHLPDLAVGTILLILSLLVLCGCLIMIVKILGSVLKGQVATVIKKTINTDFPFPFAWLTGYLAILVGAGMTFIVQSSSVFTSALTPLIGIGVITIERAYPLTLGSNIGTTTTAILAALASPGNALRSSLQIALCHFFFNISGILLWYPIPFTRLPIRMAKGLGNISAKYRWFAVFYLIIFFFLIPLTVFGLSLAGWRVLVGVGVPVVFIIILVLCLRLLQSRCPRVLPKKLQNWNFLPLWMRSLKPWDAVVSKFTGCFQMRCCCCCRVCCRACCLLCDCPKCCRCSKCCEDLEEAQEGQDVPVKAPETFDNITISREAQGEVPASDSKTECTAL

rat SLC34A2 = biological target: T2, rat SLC34A2 (rat, UniProt Q9JJ09 1-695); assay: FACS, HEK293/Rat SLC34A2 cells
T2 construct: whole, on cells
T2 sequence (looked up): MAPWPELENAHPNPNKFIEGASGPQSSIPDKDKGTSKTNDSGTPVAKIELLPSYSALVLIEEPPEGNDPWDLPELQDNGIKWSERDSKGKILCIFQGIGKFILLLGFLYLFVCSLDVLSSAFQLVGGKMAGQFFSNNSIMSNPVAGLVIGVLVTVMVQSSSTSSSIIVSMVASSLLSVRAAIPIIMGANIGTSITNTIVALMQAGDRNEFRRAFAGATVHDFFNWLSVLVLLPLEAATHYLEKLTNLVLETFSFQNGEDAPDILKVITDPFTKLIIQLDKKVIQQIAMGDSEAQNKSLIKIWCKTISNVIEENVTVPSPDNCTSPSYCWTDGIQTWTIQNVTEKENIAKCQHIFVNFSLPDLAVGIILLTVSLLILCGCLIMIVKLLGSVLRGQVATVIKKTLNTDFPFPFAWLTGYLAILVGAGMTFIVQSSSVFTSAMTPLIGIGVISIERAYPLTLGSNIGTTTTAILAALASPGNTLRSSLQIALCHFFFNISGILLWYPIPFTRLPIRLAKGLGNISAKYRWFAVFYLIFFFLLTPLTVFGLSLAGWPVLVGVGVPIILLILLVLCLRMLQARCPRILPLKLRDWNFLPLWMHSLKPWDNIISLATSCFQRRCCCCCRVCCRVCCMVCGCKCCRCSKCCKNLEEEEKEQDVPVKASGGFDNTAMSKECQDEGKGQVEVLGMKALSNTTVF

Rhesus SLC34A2 [2] = biological target: T3, Rhesus SLC34A2 (Rhesus, UniProt F7HDA3 1-690); assay: FACS, HEK293/Rhesus SLC34A2 cells
T3 construct: whole, on cells
T3 sequence: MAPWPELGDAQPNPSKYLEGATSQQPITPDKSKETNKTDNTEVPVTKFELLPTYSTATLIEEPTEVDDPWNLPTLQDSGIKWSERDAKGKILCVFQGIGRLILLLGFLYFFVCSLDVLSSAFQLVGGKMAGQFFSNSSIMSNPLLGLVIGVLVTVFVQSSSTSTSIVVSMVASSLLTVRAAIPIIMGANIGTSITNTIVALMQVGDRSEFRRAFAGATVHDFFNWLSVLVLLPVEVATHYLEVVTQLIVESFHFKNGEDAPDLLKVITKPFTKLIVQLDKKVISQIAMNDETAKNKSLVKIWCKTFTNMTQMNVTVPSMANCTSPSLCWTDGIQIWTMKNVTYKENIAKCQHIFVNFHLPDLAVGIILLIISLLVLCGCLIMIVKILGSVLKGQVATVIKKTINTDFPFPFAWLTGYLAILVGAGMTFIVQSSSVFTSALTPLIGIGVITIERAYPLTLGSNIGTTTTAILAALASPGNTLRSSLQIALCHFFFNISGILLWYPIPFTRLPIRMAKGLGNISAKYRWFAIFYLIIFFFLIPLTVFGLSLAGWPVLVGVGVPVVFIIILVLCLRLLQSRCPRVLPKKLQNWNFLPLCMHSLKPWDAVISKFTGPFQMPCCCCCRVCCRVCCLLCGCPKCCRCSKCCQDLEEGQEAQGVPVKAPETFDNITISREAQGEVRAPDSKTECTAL

Rhesus SLC34A2 [3] = biological target: T3, Rhesus SLC34A2; assay: FACS, HEK293/Rhesus SLC34A2 cells; remark: listed apart in the source
human SLC34A2 [4] = biological target: T1, human SLC34A2; assay: FACS, HEK293/human SLC34A2 cells; remark: listed apart in the source
human SLC34A2 [5] = biological target: T1, human SLC34A2; assay: FACS, OVCAR3 cells
human SLC34A2 [6] = biological target: T1, human SLC34A2; assay: FACS, OVCAR3 cells; remark: listed apart in the source
human SLC34A2 [7] = biological target: T1, human SLC34A2; assay: FACS, OVCAR3 cells; remark: listed apart in the source
[8] = biological target: Cynomolgus SLC34A2 (Cynomolgus); assay: FACS, cells expressing Cynomolgus SLC34A2
human SLC34A2 [9] = biological target: T1, human SLC34A2; assay: FACS, RMG-1 cells
human SLC34A2 [10] = biological target: T1, human SLC34A2; assay: FACS, HEK293/human SLC34A2 cells; remark: listed apart in the source
human SLC34A2 [11] = biological target: T1, human SLC34A2; assay: FACS, OVCAR3 cells; remark: listed apart in the source

B1: XMT-1536 (antibody, INN chains, looked up, V domains shown)
VH: QVQLVQSGAEVVKPGASVKMSCKASGYTFTGYNIHWVKQAPGQGLEWIGAIYPGNGDTSYKQKFRGRATLTADTSTSTVYMELSSLRSEDSAVYYCARGETARATFAYWGQGTLVTVSS
VL: DIQMTQSPSSLSASVGDRVTITCSASQDIGNFLNWYQQKPGKTVKVLIYYTSSLYSGVPSRFSGSGSGTDYTLTISSLQPEDFATYYCQQYSKLPLTFGQGTKLELK
modifications: rilsodotin auristatin payload
EC50 (human SLC34A2 [1]): 4.05 nM | Top (human SLC34A2 [1]): 34700 MFI | EC50 (rat SLC34A2): 4.48 nM | EC50 (Rhesus SLC34A2 [2]): 5.8 nM | Top (MFI) (Rhesus SLC34A2 [2]): 27000 MFI | EC50 (Rhesus SLC34A2 [3]): 2.6 nM | Top (MFI) (Rhesus SLC34A2 [3]): 11500 MFI | EC50 (human SLC34A2 [4]): 4.27 nM | EC50 (human SLC34A2 [5]): 3.8 nM | Top (human SLC34A2 [5]): 29000 MFI | Top (MFI) (human SLC34A2 [5]): 58400 MFI | EC50 (human SLC34A2 [6]): 6.87 nM | Top (MFI) (human SLC34A2 [6]): 29000 MFI | EC50 (human SLC34A2 [7]): 2.68 nM | Top (MFI) (human SLC34A2 [7]): 32400 MFI | EC50 [8]: 3.72 nM | EC50 (human SLC34A2 [9]): 4.87 nM | Top (MFI) (human SLC34A2 [9]): 9110 MFI | EC50 (human SLC34A2 [10]): 2.5 nM | Top (MFI) (human SLC34A2 [10]): 27700 MFI | EC50 (human SLC34A2 [11]): 10.3 nM | Top (human SLC34A2 [11]): 22500 MFI
